This data set relates to N=C(N)NCCC[C@H](N)C(=O)O. The experiment in a line: purified protein. The conditions noted are these: 27 °C.

Broadly, the Km is the concentration of substrate that gives half-maximal velocity. The term kcat denotes the number of substrate molecules converted per active site and unit of time at saturation. As usually defined, the kcat/Km is the turnover number divided by the Michaelis constant.

Text: decarboxylase activity assay on Ca. Fonsibacter ubiquis "ODC" (ODC/ADC)

In the case of “Ca. Fonsibacter ubiquis "ODC" (ODC/ADC) (unidentified)”, the Km is 1300 ± 120 µM, the kcat worked out at 2.2 ± 0.13 s⁻¹ and the kcat/Km amounted to 1700 ± 91 M⁻¹ s⁻¹.

The record behind these values is paper PMC9992855, “Functional polyamine metabolic enzymes and pathways encoded by the virosphere” (Proceedings of the National Academy of Sciences of the …, 2023).
